# Laboratory results taken from US20170355757A1 (Regeneron, published 2017).
# B1: H4H12183P2 (antibody, human IgG4, V domains shown)
# VH: QVQLQESGPALVKPSQTLSLTCTVSGGSIIRGSTYWSWVRQFPGKGLEWIGYSYYSGTAYYNPSLESRATISVDTSKNQFSLNLKSVTAADTAVYYCTREIGVAGLFDIWGQGTLVTVSS
# VL: not shown
# notes: H4H: human IgG4 Fc with S108P hinge mutation
# B2: H4H12161P (antibody, human IgG4, V domains shown)
# VH: EVQLVESGGDLVQPGGSLRLSCAASGFTFSDHYMDWVRQAPGKGLDWIGRIRNKANAYNTEYAASVRGRFTISRDDSQNLLYLQMNSLKTDDTAVYYCVRVWNYAYFAMDVWGQGTTVTVSS
# VL: DIQMTQSPSSLSASVGDRVTITCRSSQNIGIFLNWYQQKPGEAPNLLISAASSLHSGVPSRFSGSGSGTDFTLTIGSLQPEDFATYYCQQTYNTIFTFGPGTKVDIK
# notes: as for B1
# B3: H4H12177P2 (antibody, human IgG4, V domains shown)
# VH: EVQLVESGGGVVQRGESLRLSCSASDFIFKDYAMYWVRQIPGKGLEWISLISGDGDTTWYGDSVKGRFTISRDNNENSLFLQMNDLRTEDTAMYYCARDMGWNFFQLQYWGQGTLVTVSS
# VL: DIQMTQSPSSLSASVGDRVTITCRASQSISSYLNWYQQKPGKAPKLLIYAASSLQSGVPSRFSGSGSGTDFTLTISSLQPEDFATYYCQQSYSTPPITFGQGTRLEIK
# notes: Human IgG4 Fc with S108P hinge mutation (H4H)
# Assays:
# human C5 [1] = molecular target: T1, human C5 (human, UniProt P01031 19-1676); assay: cell-based or functional assay
# monkey C5-mmh [2] = molecular target: T2, monkey C5-mmh (monkey, UniProt P01031 19-1676 (human entry), limits assumed); assay: SPR (Biacore), mAb captured, dissociation of monkey C5 at pH7.4 vs pH6.0, 37°C
# T2 construct: recombinant, with C-terminal myc-myc-hexahistidine tag
# T2 chain: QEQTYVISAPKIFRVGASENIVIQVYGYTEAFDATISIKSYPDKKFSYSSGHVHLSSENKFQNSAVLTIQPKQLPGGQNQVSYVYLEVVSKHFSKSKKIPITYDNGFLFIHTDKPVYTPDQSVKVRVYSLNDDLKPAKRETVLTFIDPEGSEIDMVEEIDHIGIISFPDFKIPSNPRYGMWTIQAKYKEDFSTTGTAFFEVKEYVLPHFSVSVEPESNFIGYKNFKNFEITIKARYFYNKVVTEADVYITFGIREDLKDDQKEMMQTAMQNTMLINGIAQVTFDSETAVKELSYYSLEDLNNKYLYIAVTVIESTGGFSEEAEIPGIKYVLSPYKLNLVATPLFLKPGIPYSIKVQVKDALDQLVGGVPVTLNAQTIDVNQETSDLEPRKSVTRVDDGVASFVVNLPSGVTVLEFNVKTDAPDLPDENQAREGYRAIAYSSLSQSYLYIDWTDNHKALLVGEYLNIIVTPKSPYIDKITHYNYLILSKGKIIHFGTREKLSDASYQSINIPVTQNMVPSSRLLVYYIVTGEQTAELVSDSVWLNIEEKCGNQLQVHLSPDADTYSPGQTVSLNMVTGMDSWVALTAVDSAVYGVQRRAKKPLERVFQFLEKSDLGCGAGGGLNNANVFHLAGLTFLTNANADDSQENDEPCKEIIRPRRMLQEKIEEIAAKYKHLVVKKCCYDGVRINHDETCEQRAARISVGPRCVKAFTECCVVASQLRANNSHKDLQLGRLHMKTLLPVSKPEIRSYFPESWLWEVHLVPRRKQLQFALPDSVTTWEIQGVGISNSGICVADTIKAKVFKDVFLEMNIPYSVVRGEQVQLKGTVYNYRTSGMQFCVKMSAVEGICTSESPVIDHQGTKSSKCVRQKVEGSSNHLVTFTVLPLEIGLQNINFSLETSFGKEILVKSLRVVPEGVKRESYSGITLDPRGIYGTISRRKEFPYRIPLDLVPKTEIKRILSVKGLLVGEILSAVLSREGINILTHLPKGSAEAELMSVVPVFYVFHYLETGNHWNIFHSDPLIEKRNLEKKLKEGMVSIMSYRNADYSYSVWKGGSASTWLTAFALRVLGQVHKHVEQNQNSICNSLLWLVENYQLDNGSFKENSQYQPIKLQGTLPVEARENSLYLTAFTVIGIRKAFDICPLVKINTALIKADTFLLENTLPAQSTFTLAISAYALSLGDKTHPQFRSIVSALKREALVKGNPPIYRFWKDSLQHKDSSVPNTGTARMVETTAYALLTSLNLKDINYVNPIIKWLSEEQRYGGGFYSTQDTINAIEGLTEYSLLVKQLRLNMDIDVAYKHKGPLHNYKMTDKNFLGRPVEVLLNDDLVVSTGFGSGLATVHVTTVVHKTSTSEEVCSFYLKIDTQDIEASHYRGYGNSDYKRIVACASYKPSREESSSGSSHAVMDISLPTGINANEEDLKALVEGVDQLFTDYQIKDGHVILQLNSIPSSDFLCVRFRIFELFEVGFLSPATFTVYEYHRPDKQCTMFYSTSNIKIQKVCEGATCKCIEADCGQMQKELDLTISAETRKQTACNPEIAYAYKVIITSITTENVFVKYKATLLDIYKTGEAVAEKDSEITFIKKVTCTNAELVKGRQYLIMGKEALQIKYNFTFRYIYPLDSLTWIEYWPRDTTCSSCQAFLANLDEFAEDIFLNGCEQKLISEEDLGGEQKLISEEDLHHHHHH
# monkey C5-mmh [3] = molecular target: T2, monkey C5-mmh; assay: SPR (Biacore), mAb captured, dissociation of monkey C5 at pH7.4 vs pH6.0, 25°C
# Cynomolgus monkey C5 = Cynomolgus monkey C5 (cynomolgus monkey, UniProt A0A2K5U1T1 19-1676); assay: cell-based or functional assay
# human C5 R885C-mmh [4] = molecular target: human C5 R885C-mmh (human, UniProt P01031 19-1676); assay: cell-based or functional assay
# human C5 [5] = molecular target: T1, human C5; assay: cell-based or functional assay; remark: listed apart in the source
# African green monkey C5 [6] = molecular target: T3, African green monkey C5 (African green monkey); assay: cell-based or functional assay
# human C5 R885H-mmh [7] = molecular target: human C5 R885H-mmh (human, UniProt P01031 19-1676); assay: cell-based or functional assay
# human C5 [8] = molecular target: T1, human C5; assay: SPR (Biacore), mAb captured, dissociation of human C5 at pH7.4 vs pH6.0, 37°C
# Protocol: Effect of pH on the rate of dissociation of recombinant human C5 bound to purified anti-C5 monoclonal antibodies was determined using a real-time surface plasmon resonance biosensor using a Biacore T200 instrument. The Biacore sensor surface was first derivatized by amine coupling with a monoclonal mouse anti-human Fc antibody (GE, # BR-1008-39) to capture anti-C5 monoclonal antibodies expressed with human IgG4 Fc. All Biacore binding studies were performed using two running buffers PBS-T, pH7.4 (0.01M Na₂HPO₄/NaH₂PO₄, 0.15M NaCl, 0.05% v/v Tween-20, adjusted to pH7.4) and PBS-T, pH6.0 (0.01M Na₂HPO₄/NaH₂PO₄, 0.15M NaCl, 0.05% v/v Tween-20, adjusted to pH6.0). […] Binding dissociative half-lives (t %) were calculated from kd as: […]
# African green monkey C5 [9] = molecular target: T3, African green monkey C5; assay: cell-based or functional assay; remark: listed apart in the source
# human C5 [10] = molecular target: T4, human C5 (human, UniProt P01031 19-1676); assay: SPR, mAb captured via anti-hFc, dissociation at pH7.4 vs pH6.0, 25C
# T4 construct: Bought human C5 (EMD #204888, said elsewhere to be purified from plasma); also called hC5; complement component 5
# In short: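 Anti-C5 mAbs (human IgG4 Fc) captured on an amine-coupled mouse anti-human Fc surface; recombinant C5 dissociation followed by Biacore T200 in PBS-T (0.01M phosphate, 0.15M NaCl, 0.05% Tween-20) at pH7.4 or pH6.0. Dissociative half-life (t½) calculated from kd.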
# monkey C5-mmh [11] = molecular target: T5, monkey C5-mmh (monkey, UniProt P01031 19-1676 (human entry), limits assumed); assay: SPR, mAb captured via anti-hFc, 37C
# T5 construct: Recombinant monkey C5 with a C-terminal myc-myc-hexahistidine tag
# T5 chain: T2 chain
# In short: (§1)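 Anti-C5 mAbs were held by immobilised mouse anti-human Fc, and untagged or mmh-tagged C5 flowed 3 min, then buffer 8 min, in HBST pH 7.4.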
# human C5 R885C-mmh [12] = molecular target: T6, human C5 R885C-mmh (human, UniProt P01031 19-1676); assay: SPR, mAb captured via anti-hFc, 37C
# T6 construct: also called human C5 variant R885C
# In short: as §1
# human C5 R885H-mmh [13] = molecular target: T7, human C5 R885H-mmh (human, UniProt P01031 19-1676); assay: SPR, mAb captured via anti-hFc, 37C
# T7 construct: also called human C5 variant R885H
# In short: as §1
# human C5 R885C-mmh [14] = molecular target: T6, human C5 R885C-mmh; assay: SPR, mAb captured via anti-hFc, 25C
# In short: as §1
# human C5 R885H-mmh [15] = molecular target: T7, human C5 R885H-mmh; assay: SPR, mAb captured via anti-hFc, 25C
# In short: as §1
binder,measurement,setting,value
B1,"Human AP % Max Inhibition, hemolysis assay, NHS",human C5 [1],78.9%
same,"Human AP IC50, hemolysis assay, NHS",human C5 [1],160 nM
same,"Human CP % Max Inhibition, hemolysis assay, NHS",human C5 [1],99.9%
same,"Human CP IC50, hemolysis assay, NHS",human C5 [1],5.88 nM
same,t½ Ratio pH7.4/pH6.0,monkey C5-mmh [2],2.4
same,t½ Ratio pH7.4/pH6.0,monkey C5-mmh [3],5.8
same,"Cyno AP % Max Inhibition, hemolysis assay, 5% serum",Cynomolgus monkey C5,100%
same,"Cyno CP % Max Inhibition, hemolysis assay, 5% serum",Cynomolgus monkey C5,64.6%
same,"Cyno Serum AP IC50, hemolysis assay, 5% serum",Cynomolgus monkey C5,29.6 nM
same,"Cyno Serum CP IC50, hemolysis assay, 5% serum",Cynomolgus monkey C5,142 nM
same,"IC50, inhibition of CDC of Daudi cells, C5 depleted human serum and 6.6 nM C5 Variant R885C",human C5 R885C-mmh [4],0.45 nM
same,"IC50, inhibition of CDC of Daudi cells, 1.66% human serum",human C5 [5],1.7 nM
same,"IC50, inhibition of CDC of Daudi cells, 1.66% African Green monkey serum",African green monkey C5 [6],14 nM
same,"IC50, inhibition of CDC of Daudi cells, C5 depleted human serum and 6.6 nM C5 Variant R885H",human C5 R885H-mmh [7],1.2 nM
B2,"Human AP % Max Inhibition, hemolysis assay, NHS",human C5 [1],56.1%
same,"Human AP IC50, hemolysis assay, NHS",human C5 [1],25.5 nM
same,"Human CP % Max Inhibition, hemolysis assay, NHS",human C5 [1],93.7%
same,"Human CP IC50, hemolysis assay, NHS",human C5 [1],2.56 nM
same,t½ Ratio pH7.4/pH6.0,monkey C5-mmh [2],10.7
same,t½ Ratio pH7.4/pH6.0,human C5 [8],≤ 0.7
same,"Cyno AP % Max Inhibition, hemolysis assay, 5% serum",Cynomolgus monkey C5,98.4%
same,"Cyno CP % Max Inhibition, hemolysis assay, 5% serum",Cynomolgus monkey C5,100%
same,"Cyno Serum AP IC50, hemolysis assay, 5% serum",Cynomolgus monkey C5,7.8 nM
same,"Cyno Serum CP IC50, hemolysis assay, 5% serum",Cynomolgus monkey C5,27.9 nM
same,"AGM AP % Max Inhibition, hemolysis assay, 5% serum",African green monkey C5 [9],35.7%
same,"AGM CP % Max Inhibition, hemolysis assay, 5% serum",African green monkey C5 [9],78.9%
same,"AGM Serum AP IC50, hemolysis assay, 5% serum",African green monkey C5 [9],47.5 nM
same,"AGM Serum CP IC50, hemolysis assay, 5% serum",African green monkey C5 [9],31.9 nM
same,"IC50, inhibition of CDC of Daudi cells, C5 depleted human serum and 6.6 nM C5 Variant R885C",human C5 R885C-mmh [4],1 nM
same,"IC50, inhibition of CDC of Daudi cells, 1.66% human serum",human C5 [5],2.4 nM
same,"IC50, inhibition of CDC of Daudi cells, 1.66% African Green monkey serum",African green monkey C5 [6],2.6 nM
same,"IC50, inhibition of CDC of Daudi cells, C5 depleted human serum and 6.6 nM C5 Variant R885H",human C5 R885H-mmh [7],1.8 nM
B3,t1/2 Ratio pH7.4/pH6.0,human C5 [10],≤ 0.5
same,100 nM monkey C5-mmh Bound (RU),monkey C5-mmh [11],27 RU
same,Kd,monkey C5-mmh [11],47.7 nM
same,koff,monkey C5-mmh [11],0.00717 s⁻¹
same,kon,monkey C5-mmh [11],150000 M⁻¹ s⁻¹
same,t1/2,monkey C5-mmh [11],2 min
same,100 nM Human C5 R885C-mmh Bound (RU),human C5 R885C-mmh [12],31 RU
same,Kd,human C5 R885C-mmh [12],47.6 nM
same,koff,human C5 R885C-mmh [12],0.00507 s⁻¹
same,kon,human C5 R885C-mmh [12],107000 M⁻¹ s⁻¹
same,t1/2,human C5 R885C-mmh [12],2 min
same,100 nM Human C5 R885H-mmh Bound (RU),human C5 R885H-mmh [13],51 RU
same,Kd,human C5 R885H-mmh [13],10 nM
same,koff,human C5 R885H-mmh [13],0.00276 s⁻¹
same,kon,human C5 R885H-mmh [13],276000 M⁻¹ s⁻¹
same,t1/2,human C5 R885H-mmh [13],4 min
same,100 nM Human C5 R885C-mmh Bound (RU),human C5 R885C-mmh [14],177 RU
same,Kd,human C5 R885C-mmh [14],13.2 nM
same,koff,human C5 R885C-mmh [14],0.00132 s⁻¹
same,kon,human C5 R885C-mmh [14],100000 M⁻¹ s⁻¹
same,t1/2,human C5 R885C-mmh [14],9 min
same,100 nM Human C5 R885H-mmh Bound (RU),human C5 R885H-mmh [15],232 RU
same,Kd,human C5 R885H-mmh [15],4.01 nM
same,koff,human C5 R885H-mmh [15],0.000592 s⁻¹
same,kon,human C5 R885H-mmh [15],148000 M⁻¹ s⁻¹
same,t1/2,human C5 R885H-mmh [15],20 min
